Consider seven sequences from the supplement of paper PMC12455559.

Data set [1] in a line: PET hydrolysis, aromatic products released after 48 h (umol product/mg enzyme); higher = more PET depolymerization activity. The method, boiled down:
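Reactions ran in sealed plates without shaking for 48 h at 40 or 60 °C. Each held 3.5 mg amorphous PET film or crystalline PET powder, 450 μL buffer and 5 μg (50 μL) of tagless, SUMO-cleaved, nickel-purified candidate enzyme. Buffers were 50 mM NaCitrate at pH 4.5 or 5.5, 50 mM NaPhosphate at pH 6.5 or 7.5, and glycine at pH 8.5. The supernatant's aromatic product, read at 260 and 280 nm against buffer blanks, gives PET hydrolysis activity per mg enzyme.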

A short description of data set [2]: melting temperature (DSF); higher = more thermostable. The procedure, abridged: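 Candidate enzymes were expressed in E. coli C41(DE3), purified on nickel beads and released by SUMO protease cleavage. For differential scanning fluorimetry, 45 μL enzyme (0 to 0.3 mg/mL) was mixed with 5 μL 5X Sypro Orange in sealed PCR plates on a Bio-Rad CFX96 instrument. Fluorescence was read from 25 °C in steps of 0.3 °C per cycle (ramp 0.3 °C/s) for 250 cycles. The read-out is melting temperature.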

Data set [3] can be described thus: purified protein yield per well (BCA); higher = higher soluble expression. The method, boiled down:
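The measured quantity is purified protein yield per well, determined with the Pierce Rapid Gold BCA kit. Anything below 25 ug (0.1 mg/mL) lies under the detection threshold. Enzymes were expressed in E. coli C41(DE3) in 2 mL autoinduction cultures with 100 µg/mL kanamycin at 37 °C for 2 h, then 18 °C for 40 h, and purified on an OT-2 robot using Ni-charged magnetic beads and SUMO protease release.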

The mark [4] stands for this setting: substrate: cryPow, 40 °C, pH 4.5.
[5] abbreviates: substrate: cryPow, 40 °C, pH 5.5.
Where [6] appears, read: substrate: cryPow, 40 °C, pH 6.5.
Where [7] appears, read: substrate: cryPow, 40 °C, pH 7.5.
The mark [8] stands for this setting: substrate: cryPow, 60 °C, pH 4.5.
Setting [9] is: substrate: cryPow, 60 °C, pH 5.5.
The mark [10] stands for this setting: substrate: cryPow, 60 °C, pH 6.5.
The mark [11] stands for this setting: substrate: cryPow, 60 °C, pH 7.5.
[12] abbreviates: substrate: aFilm, 40 °C, pH 4.5.
Where [13] appears, read: substrate: aFilm, 40 °C, pH 5.5.
Setting [14] is: substrate: aFilm, 40 °C, pH 6.5.
Setting [15] is: substrate: aFilm, 40 °C, pH 7.5.
The mark [16] stands for this setting: substrate: aFilm, 60 °C, pH 4.5.
[17] abbreviates: substrate: aFilm, 60 °C, pH 5.5.
Where [18] appears, read: substrate: aFilm, 60 °C, pH 6.5.
[19] abbreviates: substrate: aFilm, 60 °C, pH 7.5.

± gives the standard deviation of the averaged measurements. Where only a bound is given, the exact number is not on record here.

Regarding “QDNSQGRYRPEGRQIGVAAGREFGERIYEVRTYETNPGIAEFADVMVFYPLTLSFDRPNGAIAFSPGFRAAADNYEWWGPALASLGYNVFILNTNEPTDDLDARADALAALVDFIKAENANPDSPVANKIDEEKIALMGHSMGGGAALAAADRLGDAVGAVIPLALYCCNPGGSFEGDYGSLSAAALVIASAEDTVAPPEAHARLLYDSLGSENKIYMEFAAGDHMFPANGGPELATMGRFTLAFLKAYLDGVAGLEQHVTSPSDEYAERFSTYLAP [TEP035]”, the PET hydrolysis in data set [1] (setting [4]), in data set [1] (setting [5]), in data set [1] (setting [6]) and in data set [1] (setting [7]) was < 3 in each case. Further, the melting temperature in data set [2] was 52.3 C. For the same sequence, the “purified protein yield per well” value in data set [3] was 51.6 µg.

On to “QPTLESLGNPGPYQVAYYDQLPEVDEYGAATLYFPANRGTDFGGVAIAPGFIEQQENIEWWGRHLASYGFAVLVLDTNNPRDDPQVRSEALLAALDVIRGEGARSGSPIRGKILNDRMAVMGHSMGGGGTLLAANRASDQLKAIIPFTPWLPNADFSSVAVPTLVLAGEVDRIASVAEHAWPHFQTLPEGIPRMYVEIAGGNHFIANSTTDQERLNPNIDVHDLVGALGVAWLKYFVDGDEDYRDLIYGELPAEQRARLSRFEFVQ [TEP107]”, for which the PET hydrolysis in data set [1] (setting [4]), in data set [1] (setting [5]), in data set [1] (setting [6]), in data set [1] (setting [7]), in data set [1] (setting [8]) and in data set [1] (setting [9]) was < 3 throughout. Also, the PET hydrolysis in data set [1] (setting [10]) and in data set [1] (setting [11]) was < 3 throughout. Besides, the melting temperature in data set [2] was determined as 44.5 C. Moreover, in data set [3], the “purified protein yield per well” value was 57.2 µg.

For “QSAEASPPHGPDPTEESITAPRGPFEIDQKTVSRASVRGFGGGTIYYPTDTSEGTFSAVAIAPGYTAGQESLAWLGPRLASQGFVVFTIDTLTRYDQPDSRSRQLLAALDHLTDDSDVADRVDPARRGVMGHSMGGGGSLQAALDDPDLKAAIPMTPWHTTKDFSGVRTPTLIIGAQNDTVAPVSQHAKPFYESLPDDPGKAYLELAGASHFAPNVDNTTIARYSIAWLKRFLDDDTRYEQFLCPPPPDPAISDHQSTCPY [TEP105]”, the PET hydrolysis was < 3 in data set [1] (setting [12]); < 3 in data set [1] (setting [13]); 5 ± 1.4 in data set [1] (setting [14]); 7.5 ± 0.71 in data set [1] (setting [15]); < 3 in data set [1] (setting [16]); < 3 in data set [1] (setting [17]). In addition, the PET hydrolysis in data set [1] (setting [18]) was < 3; in data set [1] (setting [19]), 10 ± 4.2; in data set [1] (setting [4]), < 3; in data set [1] (setting [5]) it was 15.5 ± 0.71; in data set [1] (setting [6]), 46.5 ± 0.71; in data set [1] (setting [7]) it was 59.5 ± 0.71. Besides, the PET hydrolysis in data set [1] (setting [8]) is < 3; in data set [1] (setting [9]) it was 10.5 ± 0.71; in data set [1] (setting [10]), 101 ± 1.4; in data set [1] (setting [11]) it was 118 ± 13. This sequence also had a melting temperature in data set [2] of 61.6 C. Besides, the “purified protein yield per well” value in data set [3] turned out to be 207 µg.

For the sequence “QSPSAAANPYERGPDPTVSSVAAQRGTFATAEVTVPPGNGFNGGKIYYPTDTSLGTWGAVAAVPGYTARWSAEGAWMGPWLASFGFVVIGIDTNSPNDFDTARGTQLLAALDYLTQKSPVRDRVDPSRLGVIGHSMGGGGAISAAERRPSLKAALPLAPFSPSQNLSSLRVPTMIMGARDDGTVTPSYLDGLYGGMPATTQSAYIELTGGGHGFPTWGNSNVTRRTIPWLKIFLDNDTRYTQFLCPSPADRTGVSRSQTKCPYVPPGTTTPPPSGGQIVGAGSGRCLDVPNASQTNGTQLQLWDCSANANQKWARTGTGELRVYGNKCLDAEGAGTSPGTRVIIWDCHGGQNQRWNVNTSGTITRADPVCAWTRKATAPGTAPRRSWGTAMAGPASAGPSGSED [TEP122]”, the PET hydrolysis in data set [1] (setting [4]), in data set [1] (setting [5]), in data set [1] (setting [6]), in data set [1] (setting [7]), in data set [1] (setting [8]) and in data set [1] (setting [9]) was < 3 throughout. Further, the PET hydrolysis in data set [1] (setting [10]) and in data set [1] (setting [11]) was < 3 each time. In addition, the melting temperature in data set [2] worked out at 54.1 C. The “purified protein yield per well” value in data set [3] worked out at 186 µg.

For the sequence “QSSNPYQRGPAPTERSIEASRGPFAVAQTTVSRLSATGFGGGTIYYPTDTSQGRFGGVAISPGFTALQSSIAWLGPRIASQGFIVFTIDTITTLDQPAQRGDQLLAALDYLVQRSPAAVRDRLDPTRLAVMGHSMGGGGTLEAAKKRPSLKAAIPLTGWNLDTIWNDLRVPTLVVGAQLDLIAPILTFSLPFYNTIPASTEKVYLELAGASHFAPNLPDTNIAKYSIAWLKRWVDNDTRYTQFLCPGPRFELAISNYMSSCPM [DP056]”, the PET hydrolysis is < 3 in data set [1] (setting [5]); < 3 in data set [1] (setting [6]); 4 in data set [1] (setting [7]); 6 in data set [1] (substrate: cryPow, 40 °C, pH 8.5). Besides, the melting temperature in data set [2] turned out to be 56.2 C. Further, the “purified protein yield per well” value in data set [3] is 36 µg.

Regarding “QSSSAAANPYERGPAPTVSSVAAQRGTFATAEVTVPPGNGFNGGKIYYPTDTSLGTWGAVAAVPGYTARWSAEGAWMGPWLASFGFVVIGIDTNSPNDYDTARGTQLLAALDYLTRKSPVHDRVDPNRLGVIGHSMGGGGAISAAERRPSLKAAVPLAPFSPSQNLSSLRVPTMIMGARDDGTVTPSYLDGLYSGMPAATQSAYIELTSGGHGFPTWGNSHVTRRAIPWLKIFLDNDTRYTQFLCPSPADSREVSRSQTKCPYVPPGGTTTPPSGEQIVGAASGRCLDVVNSSQTSGAQAHPWDCADRPGQKWARTDAGELRVYSNKCLDAEASGTSAGTRVVIWACHGRQNQRWNVNANGTITSVPSGLCLDTYNGGTGNGAQSVLGNCNGASTQRWTLR [TEP086]”, the PET hydrolysis in data set [1] (setting [12]), in data set [1] (setting [13]), in data set [1] (setting [14]), in data set [1] (setting [15]), in data set [1] (setting [16]) and in data set [1] (setting [17]) was < 3 throughout. In addition, the PET hydrolysis in data set [1] (setting [18]), in data set [1] (setting [19]), in data set [1] (setting [4]), in data set [1] (setting [5]), in data set [1] (setting [6]) and in data set [1] (setting [7]) was < 3 each time. The PET hydrolysis in data set [1] (setting [8]), in data set [1] (setting [9]), in data set [1] (setting [10]) and in data set [1] (setting [11]) was < 3 each time. Moreover, the melting temperature in data set [2] came out at 56.8 C. In data set [3], the “purified protein yield per well” value was determined as 385 µg.

For the sequence “QSSSCSLMGDVNESNGVDIVDALLIAQAYVGLNPEMEYNPCADVDCSGSMNIVDALLVAQKYVGLISNFPCQISPEPTTEPTSEPVLFIACGSSSAVGSFQADEYFSGGNTHSNSNSVDISRITVNTPPAGLFNNERYGEMSYNIPGLSAGETYTVTLYFAETYLSSSGSRLFNVSINHSDVLTSFDIYDSAGGQNIAVSYSFITTADNSGNILIDFASVTENPKINGIAIMAGIGPTNVPTPEPTPTPENSGFQRGPDPSLASISANRGTFATAELTFPAGNGFGGGFIYYPTDTSLGTWGAVAICPGGSAKFANEETWMGHWLASFGFVVIGIETNNTFDFPESRGTQLLAALDYLVQKSAVKDRVDPDRLMVMGHSMGGGGAFHAALARSSLKTMVALAPWFNTNLTSPSLSNLRMPTMVISARNDTVVTPASCSAIYDKIPTSTQRAWVELAADDHLGFIKPNYTEMRVLIPWMKIFLDSDERYVQFLCPMANSSNISIYKNSCPLVP [TEP098]”, the PET hydrolysis in data set [1] (setting [4]), in data set [1] (setting [5]), in data set [1] (setting [6]) and in data set [1] (setting [7]) was < 3 throughout. Further, the melting temperature in data set [2] came to 51.7 C. In data set [3], the “purified protein yield per well” value came to 50.5 µg.
